This is an account of results in patent US20200199213A1 (Eli Lilly, published 2020).

B3: human ANGPTL3 (other)
chain: SRIDQDNSSFDSLSPEPKSRFAMLDDVKILANGLLQLGHGLKDFVHKTKGQINDIFQKLNIFDQSFYDLSLQTSEIKEEEKELRRTTYKLQVKNEEVKNMSLELNSKLESLLEEKILLQQKVKYLEEQLTNLIQNQPETPEHPEVTSLKTFVEKQDNSIKDLLQTVEDQYKQLNQQHSQIKEIENQLRRTSIQEPTEISLSSKPRAPRTTPFLQLNEIRNVKHDGIPAECTTIYNRGEHTSGMYAIRPSNSQVFHVYCDVISGSPWTLIQHRIDGSQNFNETWENYKYGFGRLDGEFWLGLEKIYSIVKQSNYVLRIELEDWKDNKHYIEYSFYLGNHETNYTLHLVAITGNVPNAIPENKDLVFSTWDHKAKGHFNCPEGYSGGWWWHDECGENNLNGKYNKPRAKSKPERRRGLSWKSQNGRLYSIKSTKMLIHPTDSESFE
B4: human ANGPTL3/8 complex (other)
chain 1: SRIDQDNSSFDSLSPEPKSRFAMLDDVKILANGLLQLGHGLKDFVHKTKGQINDIFQKLNIFDQSFYDLSLQTSEIKEEEKELRRTTYKLQVKNEEVKNMSLELNSKLESLLEEKILLQQKVKYLEEQLTNLIQNQPETPEHPEVTSLKTFVEKQDNSIKDLLQTVEDQYKQLNQQHSQIKEIENQLRRTSIQEPTEISLSSKPRAPRTTPFLQLNEIRNVKHDGIPAECTTIYNRGEHTSGMYAIRPSNSQVFHVYCDVISGSPWTLIQHRIDGSQNFNETWENYKYGFGRLDGEFWLGLEKIYSIVKQSNYVLRIELEDWKDNKHYIEYSFYLGNHETNYTLHLVAITGNVPNAIPENKDLVFSTWDHKAKGHFNCPEGYSGGWWWHDECGENNLNGKYNKPRAKSKPERRRGLSWKSQNGRLYSIKSTKMLIHPTDSESFEAAADYKDDDDK
chain 2: APMGGPELAQHEELTLLFHGTLQLGQALNGVYRTTEGRLTKARNSLGLYGRTIELLGQEVSRGRDAAQELRASLLETQMEEDILQLQAEATAEVLGEVAQAQKVLRDSVQRLEVQLRSAWLGPAYREFEVLKAHADKQSHILWALTGHVQRQRREMVAQQHRLRQIQERLHTAALPA

The target of test [1] is T1, human ANGPTL8 (human, UniProt Q6UXH0 22-198).
T1 construct: Biotinylated in the ELISA assays; also called hANGPTL8; free ANGPTL8
T1 sequence: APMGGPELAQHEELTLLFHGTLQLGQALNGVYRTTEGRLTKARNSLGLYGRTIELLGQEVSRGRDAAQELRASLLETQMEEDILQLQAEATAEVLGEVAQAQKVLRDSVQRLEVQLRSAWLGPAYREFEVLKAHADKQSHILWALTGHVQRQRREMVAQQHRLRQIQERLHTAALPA
The experiment in a line: single point ELISA. The method, then:
(§1) Single Point ELISA (SPE) Assay: Ab binding selectivity to either the ANGPTL3/8 complex, free ANGPTL3 or free ANGPTL8 is initially verified using standard ELISA assays in a single point format. […] IgG secreted into supernatants after expression in CHO cells are then captured to the assay plate. Biotinylated antigen is added at a concentration of 25 nM to allow for Ab/antigen binding. Ab/antigen complexes are detected after adding alkaline phosphatase-conjugated neutravidin and alkaline phosphatase substrate, and subsequent measurement of the optical density at 560 nm. Positive binding is determined by a signal greater than 3 fold over the non-binding background signal.
A general note: An ELISA detects its analyte on a solid surface through an enzyme-linked reagent.

For test [2], the target named is B3. The experiment in a line: single point ELISA. The method, then:
as §1

Another test deals with T2, mouse ANGPTL3/8 complex (mouse, UniProt Q9R182 17-455; Q8R1L8 16-198, limits assumed).
T2 sequence (looked up) 1: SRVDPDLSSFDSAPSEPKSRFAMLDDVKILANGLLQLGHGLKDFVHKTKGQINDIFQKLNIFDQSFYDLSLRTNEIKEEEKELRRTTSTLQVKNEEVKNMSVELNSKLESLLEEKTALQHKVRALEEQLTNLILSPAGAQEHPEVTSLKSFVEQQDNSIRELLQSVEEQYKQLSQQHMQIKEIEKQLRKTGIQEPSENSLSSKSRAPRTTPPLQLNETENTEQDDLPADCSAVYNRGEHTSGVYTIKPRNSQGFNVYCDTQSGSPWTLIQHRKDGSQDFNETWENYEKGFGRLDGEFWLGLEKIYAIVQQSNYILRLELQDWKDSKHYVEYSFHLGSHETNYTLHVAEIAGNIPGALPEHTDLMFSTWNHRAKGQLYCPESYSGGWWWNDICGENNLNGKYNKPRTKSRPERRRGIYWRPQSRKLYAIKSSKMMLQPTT
T2 sequence (looked up) 2: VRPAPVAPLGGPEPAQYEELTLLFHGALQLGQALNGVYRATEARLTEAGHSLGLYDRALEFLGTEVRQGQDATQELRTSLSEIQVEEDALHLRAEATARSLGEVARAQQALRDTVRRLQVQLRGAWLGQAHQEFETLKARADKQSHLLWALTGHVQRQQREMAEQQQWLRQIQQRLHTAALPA
The experiment in a line: cell-based or functional assay.

The target in test [3] is B4. The experiment in a line: cell-based or functional assay.
Test [4] deals with B4. The test is described as follows: single point ELISA; IgG captured by anti-human Fc; biotinylated antigen at 25 nM. The method, then: as §1
Test [5] concerns the target T1, human ANGPTL8. Described as above. The method, then: as §1
Test [6] has as its target B3. The test is described as above. The method, then: as §1
Test [7] deals with T3, LPL (lipoprotein lipase) on LPL-expressing cells of Example 1.
T3 sequence (P06858 28-475, species assumed, looked up): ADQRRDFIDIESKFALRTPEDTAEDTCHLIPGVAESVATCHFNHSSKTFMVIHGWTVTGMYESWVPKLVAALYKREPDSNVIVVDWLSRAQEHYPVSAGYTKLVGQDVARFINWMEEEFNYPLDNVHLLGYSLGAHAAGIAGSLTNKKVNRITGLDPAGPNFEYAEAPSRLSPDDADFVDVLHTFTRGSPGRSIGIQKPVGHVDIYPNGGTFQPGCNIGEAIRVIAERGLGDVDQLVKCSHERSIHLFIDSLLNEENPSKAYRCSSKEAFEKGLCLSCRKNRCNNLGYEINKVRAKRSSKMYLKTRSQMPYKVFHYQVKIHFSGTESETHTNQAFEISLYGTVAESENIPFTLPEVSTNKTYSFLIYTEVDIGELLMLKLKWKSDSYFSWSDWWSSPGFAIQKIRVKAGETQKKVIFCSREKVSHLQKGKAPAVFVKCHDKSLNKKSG
The experiment in a line: cell-based or functional assay.

Another test has as its target T4, human LPL (human, UniProt P06858 28-475).
T4 sequence (looked up): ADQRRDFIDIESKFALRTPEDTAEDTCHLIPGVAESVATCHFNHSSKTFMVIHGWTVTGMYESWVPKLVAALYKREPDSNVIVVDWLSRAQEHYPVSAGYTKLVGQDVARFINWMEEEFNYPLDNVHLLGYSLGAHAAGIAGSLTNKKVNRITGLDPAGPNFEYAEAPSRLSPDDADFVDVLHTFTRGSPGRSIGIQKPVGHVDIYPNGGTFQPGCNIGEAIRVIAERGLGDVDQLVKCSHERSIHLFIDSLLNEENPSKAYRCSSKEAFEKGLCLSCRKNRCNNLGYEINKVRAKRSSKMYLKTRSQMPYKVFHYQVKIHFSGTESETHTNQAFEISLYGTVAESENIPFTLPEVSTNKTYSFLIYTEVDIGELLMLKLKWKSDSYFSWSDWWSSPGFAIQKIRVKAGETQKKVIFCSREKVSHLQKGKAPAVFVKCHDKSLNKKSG
The test is described as follows: cell-based or functional assay.

B1: Ab with LC variant having a D33T mutation (SEQ ID NO:23) and a HC of SEQ ID NO:6 (antibody, human IgG4 S228P, kappa, F234A L235A, V domains shown)
VH: QVTLKESGPTLVKPTQTLTLTCTFSGFSLSISGVGVGWIRQPPGKALEWLALIYRNDDKRYSPSLKSRLTITKDTSKNQVVLTLTNMDPVDTATYYCARTYSSGWYGNWFDPWGQGTLVTVSS
VL: DIVMTQTPLSLPVTPGEPASISCRSSQSLLDSTDGNTYLDWYLQKPGQSPQLLIYMLSYRASGVPDRFSGSGSGTDFTLKISRVEAEDVGIYYCMQRIEFPLTFGGGTKVEIKR
notes: also called D33T Ab
As for B1, the binding result with human ANGPTL8 [1] and with human ANGPTL3 [2] was “no binding” in each case. The “% Max Derepression LPL” value with mouse ANGPTL3/8 complex was determined as 114%; with human ANGPTL3/8 complex [3], 105%. Besides, the entries for the “Ab EC50 (nM), derepression of LPL” value with mouse ANGPTL3/8 complex and with human ANGPTL3/8 complex [3] were 4.55 nM and 1.56 nM, respectively. Further, the “OD at 560 nm” value with human ANGPTL3/8 complex [4] came out at 0.661 OD 560 nm; with human ANGPTL8 [5] it was 0.07 OD 560 nm; in the test with human ANGPTL3 [6], 0.06 OD 560 nm.

B2: Ab with LC variant having a M56T mutation (SEQ ID NO:24) and a HC of SEQ ID NO:6 (antibody, human IgG4 S228P, kappa, F234A L235A, V domains shown)
VH: QVTLKESGPTLVKPTQTLTLTCTFSGFSLSISGVGVGWIRQPPGKALEWLALIYRNDDKRYSPSLKSRLTITKDTSKNQVVLTLTNMDPVDTATYYCARTYSSGWYGNWFDPWGQGTLVTVSS
VL: DIVMTQTPLSLPVTPGEPASISCRSSQSLLDSDDGNTYLDWYLQKPGQSPQLLIYTLSYRASGVPDRFSGSGSGTDFTLKISRVEAEDVGIYYCMQRIEFPLTFGGGTKVEIKR
For B2, the binding result with human ANGPTL8 [1] and with human ANGPTL3 [2] was “no binding” in each case. Moreover, the “OD at 560 nm” value in the test with human ANGPTL3/8 complex [4] worked out at 0.775 OD 560 nm; with human ANGPTL8 [5], 0.085 OD 560 nm; with human ANGPTL3 [6], 0.06 OD 560 nm.

Take B3: in [7], the “EC50 in the LPL assay (inhibition of LPL)” value is 21.5 nM.

On to B4, for which the “EC50 in the LPL assay (inhibition of LPL)” value in test [7] is 0.54 nM. The “IC80 concentration (inhibition of LPL activity)” value with human LPL was 0.42 nM.
